Measured values: paper doi:10.1101/2025.07.18.665471 (bioRxiv, 2025)
Values joined by “and” are separate entries in the source; they are usually repeats but may differ in a detail not shown here. Equal entries are not always repeated. Where two headings read alike, the source gives them in different places.

Experiments:
[1] = target: T1, DNAJC12, wild type, human, full-length (human, UniProt Q9UKB3 1-198); assay: SEC
[2] = target: T1, DNAJC12, wild type, human, full-length; assay: BLI
SEC-MALS = target: the molecule itself; assay: SEC-MALS
[3] = target: T1, DNAJC12, wild type, human, full-length; assay: BLI; remark: listed apart in the source

T1 sequence (Q9UKB3 whole entry): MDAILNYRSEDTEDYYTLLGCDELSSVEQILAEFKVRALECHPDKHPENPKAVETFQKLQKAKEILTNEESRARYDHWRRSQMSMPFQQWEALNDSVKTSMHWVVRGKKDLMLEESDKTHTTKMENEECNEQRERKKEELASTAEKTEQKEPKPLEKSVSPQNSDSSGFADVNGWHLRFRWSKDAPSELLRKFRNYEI

| binding result [1] | Kd [2] | Kd [3] | Binder | stoichiometry N (SEC-MALS) |
| --- | --- | --- | --- | --- |
| binds | – | – | MBP-PAH(RD), regulatory domain of PAH (PAH(1-112)) fused to maltose binding protein (domain or fragment, human, UniProt P00439 1-112, looked up) MSTAVLENPGLGRKLSDFGQETSYIEDNCNQNGAISLIFSLKEEVGALAKVLRLFEENDVNLTHIESRPSRLKKDEYEFFTHLDKRSLPALTNIIKILRHDIGATVHELSRD | – |
| binds | – | – | PAH-p.R261Q, PKU-associated variant of phenylalanine hydroxylase (enzyme, human) MSTAVLENPGLGRKLSDFGQETSYIEDNCNQNGAISLIFSLKEEVGALAKVLRLFEENDVNLTHIESRPSRLKKDEYEFFTHLDKRSLPALTNIIKILRHDIGATVHELSRDKKKDTVPWFPRTIQELDRFANQILSYGAELDADHPGFKDPVYRARRKQFADIAYNYRHGQPIPRVEYMEEEKKTWGTVFKTLKSLYKTHACYEYNHIFPLLEKYCGFHEDNIPQLEDVSQFLQTCTGFRLRPVAGLLSSRDFLGGLAFQVFHCTQYIRHGSKPMYTPEPDICHELLGHVPLFSDRSFAQFSQEIGLASLGAPDEYIEKLATIYWFTVEFGLCKQGDSIKAYGAGLLSSFGELQYCLSEKPKLLPLELEKTAIQNYTVTEFQPLYYVAESFNDAKEKVRNFAATIPRPFSVRYDPYTQRIEVLDNTQQLKILADSINSEIGILCSALQKIK | – |
| – | 139 ± 19 nM | 508 ± 59 nM | phenylalanine hydroxylase (PAH), wild type, human (enzyme, UniProt P00439 1-452, looked up, biotin (EZ-Link NHS-PEG4-Biotin), for the BLI only) MSTAVLENPGLGRKLSDFGQETSYIEDNCNQNGAISLIFSLKEEVGALAKVLRLFEENDVNLTHIESRPSRLKKDEYEFFTHLDKRSLPALTNIIKILRHDIGATVHELSRDKKKDTVPWFPRTIQELDRFANQILSYGAELDADHPGFKDPVYRARRKQFADIAYNYRHGQPIPRVEYMEEEKKTWGTVFKTLKSLYKTHACYEYNHIFPLLEKYCGFHEDNIPQLEDVSQFLQTCTGFRLRPVAGLLSSRDFLGGLAFRVFHCTQYIRHGSKPMYTPEPDICHELLGHVPLFSDRSFAQFSQEIGLASLGAPDEYIEKLATIYWFTVEFGLCKQGDSIKAYGAGLLSSFGELQYCLSEKPKLLPLELEKTAIQNYTVTEFQPLYYVAESFNDAKEKVRNFAATIPRPFSVRYDPYTQRIEVLDNTQQLKILADSINSEIGILCSALQKIK | 4 and 8 |
